In patent US20200016201A1:

B1: Lym-1 (antibody, V domains shown)
VH: QLKESGPGLVAPSQSLSITCTISGFSLTSYGVHWVRQPPGKGLEWLVVIWSDGSTTYNSALKSRLSISKDNSKSQVFLKMNSLQTDDTAIYYCASHYGSTLAFASWGHGTLVTVSA
VL: DIQMTQSPASLSASVGETVTIICRASVNIYSYLAWYQQKQGKSPQLLVYNAKILAEGVPSRFSGSGSGTQFSLKINSLQPEDFGSYYCQHHYGTFTFGSGTKLEIK
B2: Lym-2 (antibody, V domains shown)
VH: EVQLEESGGGLVQPGGSMKLSCVASGFTFSNYWMNWVRQSPEKGLEWVAEIRFKSHNYATHFAESVKGRFTISRDDSKSSVYLQMNNLRAEDTGIYYCTRRIGNSDYDWWYFDVWGAGTSVTVSS
VL: DIVMTQSHKFMSTSVGDRVSVTCKASQNVGNNVAWYQQKPGQSPKVLIYSASYRYSGVPDRFTGSGSGTDFTLTISNVQSEDLAEYFCQQYNTYPFTFGSGTKLEIK

How the values were obtained:
[1] = molecular target: HLA-DR on human cells (human); test: avidity constant on tonsil lymphocytes
[2] = molecular target: HLA-DR on human cells (human); test: avidity constant, Scatchard plot analysis on the target tumor cell line (ARH-77)

| Binder | Ka [1] [M⁻¹] | Ka [2] [M⁻¹] |
| --- | --- | --- |
| B1 | 8.8e+07 |  |
| B2 | 1.23e+08 | 2.33e+08 |
